Target: RsmA (Pseudomonas aeruginosa PAO1, UniProt O69078 1-61)
Test: EMSA; without Hfq
Details: protein: recombinant; tags: His6 (C-terminal, RsmA-His6); chain copies: 2; label: none (SYBR Gold stain)

RsmA, sequence (O69078 whole entry): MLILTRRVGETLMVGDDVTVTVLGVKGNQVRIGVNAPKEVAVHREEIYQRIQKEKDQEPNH

B1: truncated vfr RNA (structured_RNA)
RNA: CUUUCGGGACUCGGGCAUGGUAGCUAUUACCCACACACCCAAACUCAAACACCUAGACAAGCUGCUCGCACACUGUCACCGCCGCCGCUACACCGCAAAGAGCACCAUCAUCUAUGCCGGCGAUCGCUGCGAU
binding result: binds
